From patent US6844192 (WAKE FOREST UNIVERSITY, dated 2005)

What was measured:
[1] = target: adenovirus E1B-55 kDa protein (Ad5) (UniProt P03243); assay: cell-based or functional assay
[2] = target: T1, adenovirus E1B-55 kDa protein (Ad5, UniProt P03243 1-496); assay: cell-based or functional assay
T1 sequence: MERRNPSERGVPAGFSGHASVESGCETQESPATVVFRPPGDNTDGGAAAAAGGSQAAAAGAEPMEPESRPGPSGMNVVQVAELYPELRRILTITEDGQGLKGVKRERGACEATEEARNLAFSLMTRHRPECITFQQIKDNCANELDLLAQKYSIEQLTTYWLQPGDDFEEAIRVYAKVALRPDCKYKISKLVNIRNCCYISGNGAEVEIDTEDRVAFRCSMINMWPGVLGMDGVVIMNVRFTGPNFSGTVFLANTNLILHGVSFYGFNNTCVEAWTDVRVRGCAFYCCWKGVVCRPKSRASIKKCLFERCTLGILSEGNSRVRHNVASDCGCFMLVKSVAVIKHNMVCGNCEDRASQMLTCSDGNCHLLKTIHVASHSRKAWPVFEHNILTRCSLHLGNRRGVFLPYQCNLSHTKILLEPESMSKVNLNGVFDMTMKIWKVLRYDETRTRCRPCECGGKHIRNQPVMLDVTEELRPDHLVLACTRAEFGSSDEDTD

E4orf6 variant R240A (from UniProt P03239 1-294)
cells with the E1B-55 kDa protein retained in the nucleus [1]: 90 % of cells

E4orf6 variant R251A (from UniProt P03239 1-294)
HeLa cells in which the E1B-55 kDa protein was retained [1]: > 62 % of cells | value for nuclear E1B-55 kDa protein retention [1]: 99%

E4orf6 variant R251E (from UniProt P03239 1-294)
cells with predominantly nuclear E1B-55 kDa protein [1]: 85 % of cells

E4orf6 variant R248E (from UniProt P03239 1-294)
cells with predominantly nuclear E1B-55 kDa protein [1]: 85 % of cells

E4orf6 variant R240,244,251A (from UniProt P03239 1-294)
HeLa cells in which the E1B-55 kDa protein was retained [1]: > 62 % of cells | cells in which the E1B-55 kDa protein was relocalized to the nucleus [1]: 60 % of cells | value for nuclear E1B-55 kDa protein retention [1]: 62%

E4orf6 variant R240,251A (from UniProt P03239 1-294)
cells with the E1B-55 kDa protein retained in the nucleus [1]: 70 % of cells

E4orf6 variant R248,251A (from UniProt P03239 1-294)
HeLa cells in which the E1B-55 kDa protein was retained [1]: > 62 % of cells | cells with the E1B-55 kDa protein retained in the nucleus [1]: 82 % of cells | value for nuclear E1B-55 kDa protein retention [1]: 80%

E4orf6 variant R240E (from UniProt P03239 1-294)
cells with predominantly cytoplasmic E1B-55 kDa protein [1]: 46 % of cells | cells with predominantly nuclear E1B-55 kDa protein [1]: 55 % of cells | cells with uniform distribution of the E1B-55 kDa protein [1]: 4 % of cells

E4orf6 variant R244E (from UniProt P03239 1-294)
cells with predominantly nuclear E1B-55 kDa protein [1]: 85 % of cells | value for nuclear E1B-55 kDa protein retention [1]: 91%

B1: wild-type adenovirus E4orf6 protein (other)
chain: MTTSGVPFGMTLRPTRSRLSRRTPYSRDRLPPFETETRATILEDHPLLPECNTLTMHNVSYVRGLPCSVGFTLIQEWVVPWDMVLTREELVILRKCMHVCLCCANIDIMTSMMIHGYESWALHCHCSSPGSLQCIAGGQVLASWFRMVVDGAMFNQRFIWYREVVNYNMPKEVMFMSSVFMRGRHLIYLRLWYDGHVGSVVPAMSFGYSALHCGILNNIVVLCCSYCADLSEIRVRCCARRTRRLMLRAVRIIAEETTAMLYSCRTERRRQQFIRALLQHHRPILMHDYDSTPM
value for nuclear E1B-55 kDa protein retention [2]: 100%

B2: E4orf6 variant R241A (other)
chain: MTTSGVPFGMTLRPTRSRLSRRTPYSRDRLPPFETETRATILEDHPLLPECNTLTMHNVSYVRGLPCSVGFTLIQEWVVPWDMVLTREELVILRKCMHVCLCCANIDIMTSMMIHGYESWALHCHCSSPGSLQCIAGGQVLASWFRMVVDGAMFNQRFIWYREVVNYNMPKEVMFMSSVFMRGRHLIYLRLWYDGHVGSVVPAMSFGYSALHCGILNNIVVLCCSYCADLSEIRVRCCARATRRLMLRAVRIIAEETTAMLYSCRTERRRQQFIRALLQHHRPILMHDYDSTPM
value for nuclear E1B-55 kDa protein retention [2]: 72%

B3: E4orf6 variant R241E (other)
chain: MTTSGVPFGMTLRPTRSRLSRRTPYSRDRLPPFETETRATILEDHPLLPECNTLTMHNVSYVRGLPCSVGFTLIQEWVVPWDMVLTREELVILRKCMHVCLCCANIDIMTSMMIHGYESWALHCHCSSPGSLQCIAGGQVLASWFRMVVDGAMFNQRFIWYREVVNYNMPKEVMFMSSVFMRGRHLIYLRLWYDGHVGSVVPAMSFGYSALHCGILNNIVVLCCSYCADLSEIRVRCCARETRRLMLRAVRIIAEETTAMLYSCRTERRRQQFIRALLQHHRPILMHDYDSTPM
value for nuclear E1B-55 kDa protein retention [2]: 0.8%
